Assay results taken from patent US20180057604A1 (Genentech, published 2018).
Where two headings read alike, the source gives them in different places.

T1: cyno TfR extracellular domain (analogous construct to human TfR ecd) (cynomolgus monkey, UniProt Q5RDH6 87-760 (Pongo abelii entry))
T1 construct: also called cynoTfR ecd
T1 chain: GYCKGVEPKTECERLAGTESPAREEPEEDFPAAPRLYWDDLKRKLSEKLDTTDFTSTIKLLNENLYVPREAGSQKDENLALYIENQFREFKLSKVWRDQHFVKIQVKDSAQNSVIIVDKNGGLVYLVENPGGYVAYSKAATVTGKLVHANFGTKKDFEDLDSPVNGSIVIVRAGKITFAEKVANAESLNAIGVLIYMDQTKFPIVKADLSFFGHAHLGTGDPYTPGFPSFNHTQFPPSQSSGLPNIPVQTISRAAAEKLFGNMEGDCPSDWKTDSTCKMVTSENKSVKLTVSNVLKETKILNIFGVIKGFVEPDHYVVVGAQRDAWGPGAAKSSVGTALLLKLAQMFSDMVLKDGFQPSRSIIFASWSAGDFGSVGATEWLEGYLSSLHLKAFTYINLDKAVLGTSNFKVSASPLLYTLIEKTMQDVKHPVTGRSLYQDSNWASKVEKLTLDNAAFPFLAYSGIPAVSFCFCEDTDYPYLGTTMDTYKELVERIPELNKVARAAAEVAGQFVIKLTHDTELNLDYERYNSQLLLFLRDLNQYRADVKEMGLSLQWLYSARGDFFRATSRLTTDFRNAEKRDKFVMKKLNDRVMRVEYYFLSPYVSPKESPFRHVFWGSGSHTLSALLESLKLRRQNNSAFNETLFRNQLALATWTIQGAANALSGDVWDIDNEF


Assays:
[1] = target: T2, human TfR extracellular domain with N-terminal His tag (human, UniProt P02786 89-760); assay: SPR, IgG
T2 construct: Biotinylated in some assays; also called huTfR; HuTfR
T2 sequence (P02786 89-760 G142S): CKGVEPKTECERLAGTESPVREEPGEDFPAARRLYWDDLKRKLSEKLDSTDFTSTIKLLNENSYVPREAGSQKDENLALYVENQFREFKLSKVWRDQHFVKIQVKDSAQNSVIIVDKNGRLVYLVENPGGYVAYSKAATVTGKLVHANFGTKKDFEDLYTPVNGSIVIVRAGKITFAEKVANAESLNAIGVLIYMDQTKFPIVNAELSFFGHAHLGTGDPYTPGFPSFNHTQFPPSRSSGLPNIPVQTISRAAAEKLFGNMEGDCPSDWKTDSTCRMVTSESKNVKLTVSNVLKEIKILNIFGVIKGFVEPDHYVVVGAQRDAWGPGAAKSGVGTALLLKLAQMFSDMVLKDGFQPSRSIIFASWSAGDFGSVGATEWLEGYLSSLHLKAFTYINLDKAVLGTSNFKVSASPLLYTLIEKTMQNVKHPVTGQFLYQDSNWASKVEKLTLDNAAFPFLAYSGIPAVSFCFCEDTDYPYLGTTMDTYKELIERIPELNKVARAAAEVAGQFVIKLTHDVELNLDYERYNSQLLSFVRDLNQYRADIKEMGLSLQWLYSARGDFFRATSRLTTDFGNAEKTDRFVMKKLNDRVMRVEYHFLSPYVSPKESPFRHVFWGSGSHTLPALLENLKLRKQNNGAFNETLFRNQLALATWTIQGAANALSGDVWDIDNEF

[2] = target: T1, cyno TfR extracellular domain …; assay: SPR, IgG
[3] = target: T2, human TfR extracellular domain with …; assay: SPR, IgG; remark: listed apart in the source
[4] = target: T1, cyno TfR extracellular domain …; assay: SPR, IgG
human BACE1 ECD [5] = target: T3, human BACE1 ECD; assay: Octet, pH 5.0;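 note: antibodies captured on anti-human capture sensor tips, dissociation monitored in PBS with BSA buffer, kinetics fitted with a one-to-one binding model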
T3 construct: analyte of the Octet assay (200 nM) and enzyme of the first short substrate assay; also called human BACE1 extracellular domain
T3 sequence (single chain, as listed by the source limits assumed): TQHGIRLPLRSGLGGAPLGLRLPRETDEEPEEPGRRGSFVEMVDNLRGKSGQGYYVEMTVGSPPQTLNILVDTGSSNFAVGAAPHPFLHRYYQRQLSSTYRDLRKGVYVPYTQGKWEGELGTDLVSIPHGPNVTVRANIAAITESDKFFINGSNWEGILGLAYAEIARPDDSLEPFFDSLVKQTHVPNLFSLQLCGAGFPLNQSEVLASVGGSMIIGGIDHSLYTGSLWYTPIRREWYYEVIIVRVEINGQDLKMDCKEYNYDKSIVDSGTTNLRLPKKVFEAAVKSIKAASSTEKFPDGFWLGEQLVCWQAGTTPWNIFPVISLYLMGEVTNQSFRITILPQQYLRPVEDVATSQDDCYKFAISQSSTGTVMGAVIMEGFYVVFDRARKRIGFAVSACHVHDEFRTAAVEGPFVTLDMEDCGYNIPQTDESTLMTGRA

murine BACE1 ECD [6] = target: T4, murine BACE1 ECD; assay: Octet, pH 5.0;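 note: antibodies captured on anti-human capture sensor tips, dissociation monitored in PBS with BSA buffer, kinetics fitted with a one-to-one binding model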
T4 construct: analyte of the Octet assay (200 nM) and enzyme of the first short substrate assay
T4 sequence (single chain, as listed by the source limits assumed): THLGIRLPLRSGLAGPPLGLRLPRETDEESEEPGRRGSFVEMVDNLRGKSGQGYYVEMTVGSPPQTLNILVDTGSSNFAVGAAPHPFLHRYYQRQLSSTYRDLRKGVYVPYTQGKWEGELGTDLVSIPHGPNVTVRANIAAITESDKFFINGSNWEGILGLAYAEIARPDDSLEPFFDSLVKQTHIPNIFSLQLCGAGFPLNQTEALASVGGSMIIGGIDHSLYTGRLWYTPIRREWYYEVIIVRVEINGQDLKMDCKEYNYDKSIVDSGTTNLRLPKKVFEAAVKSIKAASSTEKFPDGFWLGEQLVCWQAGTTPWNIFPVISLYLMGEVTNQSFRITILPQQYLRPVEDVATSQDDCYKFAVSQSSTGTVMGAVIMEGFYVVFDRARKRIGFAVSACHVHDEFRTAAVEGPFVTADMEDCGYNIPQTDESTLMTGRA

[7] = target: BACE1 (HTRF long substrate and FRET short substrate assays of Example 9D); assay: cell-based or functional assay
human BACE1 ECD [8] = target: T3, human BACE1 ECD; assay: Octet, pH 7.5;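 note: antibodies captured on anti-human capture biosensor tips, dissociation followed in PBS with BSA buffer, kinetics fitted with a one-to-one binding model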
murine BACE1 ECD [9] = target: T4, murine BACE1 ECD; assay: Octet, pH 7.5;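 note: antibodies captured on anti-human capture biosensor tips, dissociation followed in PBS with BSA buffer, kinetics fitted with a one-to-one binding model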
[10] = target: T5, human BACE1 (R&D Systems) (human, UniProt P56817); assay: SPR (Biacore)
T5 construct: recombinant, commercial (R&D Systems)
T5 sequence (P56817 22-457 limits assumed): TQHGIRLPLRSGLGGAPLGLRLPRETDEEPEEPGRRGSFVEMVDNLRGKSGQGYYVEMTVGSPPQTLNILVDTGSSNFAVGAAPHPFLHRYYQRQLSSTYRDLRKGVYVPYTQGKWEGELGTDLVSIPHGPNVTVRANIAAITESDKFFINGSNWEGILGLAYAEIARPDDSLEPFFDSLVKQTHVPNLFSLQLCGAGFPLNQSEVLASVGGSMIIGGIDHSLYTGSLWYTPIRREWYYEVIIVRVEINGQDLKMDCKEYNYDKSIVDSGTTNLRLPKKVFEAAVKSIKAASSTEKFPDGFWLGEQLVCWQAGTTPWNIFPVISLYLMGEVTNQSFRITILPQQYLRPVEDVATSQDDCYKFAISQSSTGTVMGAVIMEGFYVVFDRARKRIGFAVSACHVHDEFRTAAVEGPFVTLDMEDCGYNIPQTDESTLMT

[11] = target: T6, BACE1 in primary mouse cortical neurons (mouse, UniProt P56818 46-501); assay: cell-based or functional assay
T6 sequence (P56818 46-501): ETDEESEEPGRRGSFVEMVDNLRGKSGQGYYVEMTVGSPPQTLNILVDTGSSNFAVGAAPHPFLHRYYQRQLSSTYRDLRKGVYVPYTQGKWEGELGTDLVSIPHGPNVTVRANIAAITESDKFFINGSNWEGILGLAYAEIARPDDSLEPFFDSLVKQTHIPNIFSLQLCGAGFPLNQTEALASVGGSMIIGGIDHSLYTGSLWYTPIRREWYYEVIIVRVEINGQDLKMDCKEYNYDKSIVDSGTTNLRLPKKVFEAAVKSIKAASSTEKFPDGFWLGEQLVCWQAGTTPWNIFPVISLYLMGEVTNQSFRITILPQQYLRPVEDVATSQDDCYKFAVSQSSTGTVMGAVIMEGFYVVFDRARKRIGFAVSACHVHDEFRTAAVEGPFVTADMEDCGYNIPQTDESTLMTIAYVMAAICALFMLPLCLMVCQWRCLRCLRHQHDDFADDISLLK

human BACE1 ECD [12] = target: T3, human BACE1 ECD; assay: cell-based or functional assay
murine BACE1 ECD [13] = target: T4, murine BACE1 ECD; assay: cell-based or functional assay
[14] = target: T6, BACE1 in primary mouse cortical neurons; assay: cell-based or functional assay; remark: listed apart in the source
[15] = target: T2, human TfR extracellular domain with …; assay: SPR, IgG; remark: listed apart in the source
[16] = target: T1, cyno TfR extracellular domain …; assay: SPR, IgG

Kd [1] [nM] | Kd [2] [nM] | Kd [3] [nM] | Kd [4] [nM] | Kd (human BACE1 ECD [5]) [nM] | Kd (murine BACE1 ECD [6]) [nM] | EC50, FRET short substrate [7] [nM] | EC50, HTRF long substrate [7] [nM] | Kd (human BACE1 ECD [8]) [nM] | Kd (murine BACE1 ECD [9]) [nM] | Kd [10] [nM] | IC50, Abeta x-40 in mouse cortical neurons [11] [nM] | maximal % inhibition of Abeta x-40 [11] [%] | % inhibition of BACE1 activity, short FRET substrate (human BACE1 ECD [12]) [%] | % inhibition of BACE1 activity, short FRET substrate (murine BACE1 ECD [13]) [%] | IC50, Abeta x-40 in mouse cortical neurons [14] [nM] | maximal % inhibition of Abeta x-40 [14] [%] | Kd [15] [nM] | Kd [16] [nM] | Binder
0.992 | 2.6 | 0.992 | 2.6 | – | – | – | – | – | – | – | – | – | – | – | – | – | – | – | 15G11 (antibody, V domains shown, Mouse hybridoma antibody; also called clone 15G11) VH: QVQLQQPGAELVKPGASVKLSCKASGYTFTSYWMHWVKQRPGQGLEWIGEINPTNGRTNYIEKFKSKATLTVDKSSSTAYMQLSSLTSEDSAVYYCARGTRAYHYWGQGTSVTVSS VL: DIQMTQSPASLSVSVGETVTITCRASDNLYSNLAWYQQKQGKSPQLLVYDATNLADGVPSRFSGSGSGTQYSLKINSLQSEDFGTYYCQHFWGTPLTFGAGTKLELK
– | – | – | – | 1.8 | 2 | 0.602 | 2.5 | 0.86 | 1.4 | 4.25 | 1.79 | 82 | -86 | -183 | – | – | – | – | 5888 (antibody, V domains shown, anti-BACE1 IgG) VH: QVQLVQSGAEVKKPGSSVKVSCKASGGTFWKYAISWVRQAPGQGLEWMGNIIPGFGTANYAQKFRGRVTITADESTSTAYMELSSLRSEDTAVYYCARSGGTKYGMLDVWGQGTMVTVSS VL: EIVMTQSPATLSVSPGERATLSCRASQSVSSNLAWYQQKPGQAPRLLIYGASTRATGIPARFSGSGSGTEFTLTISSLQSEDFAVYYCQQLILWPPRTFGGGTKVEIK
– | – | – | – | < 0.23 | < 0.29 | – | – | < 0.29 | < 0.3 | 6.41 | – | – | – | – | 7.52 | 74 | – | – | 5930 (antibody, V domains shown, anti-BACE1 IgG) VH: QVQLVQSGAEVKKPGSSVKVSCKASGGTLSGYAISWVRQAPGQGLEWMGNIIPGFGTANYAQKSQGRVTITADESTSTAYMELSSLRSEDTAVYYCARSGGTRYGMLDVWGQGTMVTVSS VL: EIVMTQSPATLSVSPGERATLSCRASQSVGSNLAWYQQKPGQAPRLLIYGASTRATGIPARFSGSGSGTEFTLTISSLQSEDFAVYYCQQLYTWPPRTFGGGTKVEIK
– | – | – | – | 0.38 | 0.73 | 8.84 | 3.59 | 0.33 | 0.98 | 2.76 | 9.46 | 73 | 72 | 69 | – | – | – | – | 5893 (antibody, V domains shown, anti-BACE1 IgG) VH: QVQLVQSGAEVKKPGSSVKVSCKASGGTFRGYAISWVRQAPGQGLEWMGNIIPGFGTANYAQKFQGRVTITADESTSTAYMELSSLRSEDTAVYYCARSGGTKYGMLDVWGQGTMVTVSS VL: EIVMTQSPATLSVSPGERATLSCRASQSVGSNLAWYQQKPGQAPRLLIYGASTRATGIPARFSGSGSGTEFTLTISSLQSEDFAVYYCQQLYTWPPRTFGGGTKVEIK
– | – | – | – | 0.64 | 0.79 | 32.4 | 4.06 | 0.55 | 1 | 3.22 | 8.45 | 77 | 66 | 69 | – | – | – | – | 5890 (antibody, V domains shown, anti-BACE1 IgG) VH: QVQLVQSGAEVKKPGSSVKVSCKASGGTFSSYAISWVRQAPGQGLEWMGNIIPGFGTANYAQKFQGRVTITADESTSTAYMELSSLRSEDTAVYYCARSGGTKYGMLDVWGQGTMVTVSS VL: EIVMTQSPATLSVSPGERATLSCRASQSVGSNLAWYQQKPGQAPRLLIYGASTRATGIPARFSGSGSGTEFTLTISSLQSEDFAVYYCQQLYTWPPRTFGGGTKVEIK
– | – | – | – | 0.39 | 1.1 | 16.4 | 1.19 | 0.88 | 1.3 | 2.97 | 9.52 | 73 | 64 | 64 | – | – | – | – | 5892 (antibody, V domains shown, anti-BACE1 IgG) VH: QVQLVQSGAEVKKPGSSVKVSCKASGGTFSSYAISWVRQAPGQGLEWMGNIIPIFGTATYAQKFQGRVTITADESTSTAYMELSSLRSEDTAVYYCARSGGTKYGMLDVWGQGTMVTVSS VL: EIVMTQSPATLSVSPGERATLSCRASQSVGSNLAWYQQKPGQAPRLLIYGASTRATGIPARFSGSGSGTEFTLTISSLQSEDFAVYYCQQLYTWPPRTFGGGTKVEIK
– | – | – | – | 0.96 | 1.1 | 12.4 | 3.03 | 0.65 | 1.4 | 3.29 | 18 | 78 | 71 | 70 | – | – | – | – | 5891 (antibody, V domains shown, anti-BACE1 IgG) VH: QVQLVQSGAEVKKPGSSVKVSCKASGGTFSSYAISWVRQAPGQGLEWMGNIIPIFGPANYAQKFQGRVTITADESTSTAYMELSSLRSEDTAVYYCARSGGTKYGMLDVWGQGTMVTVSS VL: EIVMTQSPATLSVSPGERATLSCRASQSVGSNLAWYQQKPGQAPRLLIYGASTRATGIPARFSGSGSGTEFTLTISSLQSEDFAVYYCQQLYTWPPRTFGGGTKVEIK
0.206 | 0.627 | 0.206 | 0.627 | – | – | – | – | – | – | – | – | – | – | – | – | – | – | – | 7A4 (antibody, V domains shown, also called clone 7A4) VH: QVQLQQSGPELVRPGVSVKISCKGSGYTFTDYAMHWVKQSHAKSLEWIGGISTYFGRTNYNQKFKGRATMTVDKSSSTAYMELARLTSEDSALYYCARGLSGNYVMDYWGQGTSVTVSS VL: DIVLTQSPASLAVSLGQRATISCRASESVDDYGNSFMHWYQQKPGQPPKLLIYRASNLESGIPARFSGSGSRTDFTLTINPVEADDVATYYCQQSNEAPPTFGGGTKLEIR
0.112 | 0.925 | 0.112 | 0.925 | – | – | – | – | – | – | – | – | – | – | – | – | – | – | – | 7A4 HC/8A2 LC (antibody, V domains shown, chimeric IgG; also called ch7A4/8A2) VH: QVQLQQSGPELVRPGVSVKISCKGSGYTFTDYAMHWVKQSHAKSLEWIGGISTYFGRTNYNQKFKGRATMTVDKSSSTAYMELARLTSEDSALYYCARGLSGNYVMDYWGQGTSVTVSS VL: DIVLTQSPASLAVSLGQRATISCRASESVDSYGNSFMHWYQQKPGQPPKLLIYRASNLESGIPARFSGSGSRTDFTLTINPVEADDVATYYCQQSNEGPPTFGGGTKLEIK
– | – | – | – | 0.82 | 0.82 | 0.528 | 1.39 | 0.95 | 1.1 | 2.07 | 0.3 | 62 | 1 | -3 | – | – | – | – | 5897 (antibody, V domains shown, anti-BACE1 IgG) VH: QLQLQESGPGLVKPSETLSLTCTVSGGSISWSSYYWSWIRQPPGKGLEWIGSIYKSGRTYYNPSLKSRVTISVDTSKNQFSLKLSSVTAADTAVYYCARVGHGISYFDLWGRGTLVTVSS VL: EIVLTQSPATLSLSPGERATLSCRASQSVSSYLAWYQQKPGQAPRLLIYDASNRATGIPARFSGSGSGTDFTLTISSLEPEDFAVYYCQQSLTWPPRTFGGGTKVEIK
2.07 | 7.45 | – | – | – | – | – | – | – | – | – | – | – | – | – | – | – | 2.07 | 7.45 | 16F6 (antibody, V domains shown, Mouse hybridoma antibody; also called clone 16F6) VH: DVQLQESGPGLVKPSQSLSLTCTVTGNSITSEYAWNWIRQFPGNKLEWMGYISYSGTTSYNPSLKSRISITRDTSKNQLFLQLNSVTTEDTATYFCARYGYGNPATRYFDVWGAGTTVTVSS VL: DVQITQSPSYLTASPGETITINCRASKSISKYLAWYQEKPGKTNKLLIYSGSTLQSGIPSRFSGSGSGTDFTLTISNLEPEDFAMYYCQQHNEYPWTFGGGTKLEIK
